# Earlier results, collected in publication PMC7379096 (ACS Omega, 2020).
# Conditions: stated in the method section, no reference given
substance,measurement,value
Immunoglobulin G [IgG],pI,5.5–8.3
